Experimental findings from IntAct's records for PubMed 16154084 are described below.

The chains are these.
B1: Interferon regulatory factor 3 (Homo sapiens), Q14653 (parent)
chain: MGTPKPRILPWLVSQLDLGQLEGVAWVNKSRTRFRIPWKHGLRQDAQQEDFGIFQAWAEATGAYVPGRDKPDLPTWKRNFRSALNRKEGLRLAEDRSKDPHDPHKIYEFVNSGVGDFSQPDTSPDTNGGGSTSDTQEDILDELLGNMVLAPLPDPGPPSLAVAPEPCPQPLRSPSLDNPTPFPNLGPSENPLKRLLVPGEEWEFEVTAFYRGRQVFQQTISCPEGLRLVGSEVGDRTLPGWPVTLPDPGMSLTDRGVMSYVRHVLSCLGGGLALWRAGQWLWAQRLGHCHTYWAVSEELLPNSGHGPDGEVPKDKEGGVFDLGPFIVDLITFTEGSGRSPRYALWFCVGESWPQDQPWTKRLVMVKVVPTCLRALVEMARVGGASSLENTVDLHISNSHPLSLTSDQYKAYLQDLVEGMDFQGPGES

Variants of B1 are the subject of this assay. The settings on record: with cbp_human CREBBP.
E201A;E203A: the “effect of a mutation on the interaction” value is listed as “disrupting interaction”. On to C371A;L375A;M378A, for which the “effect of a mutation on the interaction” value is “disrupting interaction”.

Regarding S221A, the “effect of a mutation on the interaction” value was “disrupting interaction”.

For L322A;P324A;I326A;V327A;L329A;I330A, the “effect of a mutation on the interaction” value was “disrupting interaction”.
